Test results: article PMC4947182

How the values were obtained:
[1] = soluble expression of ectodomain in Sf9 cells; settings: glycan lost; control: WT JUNO ectodomain
[2] = mRNA complementation of Juno KO eggs, fertilization rate; settings: glycan lost; control: Juno KO eggs injected with WT mJuno mRNA

B1: JUNO (folate receptor 4, IZUMO1R): N185D (protein)
parent chain: MAQWWQILLGLWAVLPTLAGDKLLSVCMNSKRHKQEPGPEDELYQECRPWEDNACCTRSTSWEAHLEEPLLFNFSMMHCGLLTPACRKHFIQAICFHECSPNLGPWIQPVVPNGQEEQRVWGVPLCQEDCEDWWRACHSSLTCKSNWLHGWDWSEEKKHCPAHEPCLPFSYHFPTPDDLCEKIWNNTFKASPERRNSGRCLQKWFEPTLSNPNVEVALHFAGSALAPQLSYTLPAFSLCLLFHP
expression_or_secretion [1]: abolishes

B2: JUNO (folate receptor 4, IZUMO1R): N73D (protein)
parent chain: MAQWWQILLGLWAVLPTLAGDKLLSVCMNSKRHKQEPGPEDELYQECRPWEDNACCTRSTSWEAHLEEPLLFNFSMMHCGLLTPACRKHFIQAICFHECSPNLGPWIQPVVPNGQEEQRVWGVPLCQEDCEDWWRACHSSLTCKSNWLHGWDWSEEKKHCPAHEPCLPFSYHFPTPDDLCEKIWNNTFKASPERRNSGRCLQKWFEPTLSNPNVEVALHFAGSALAPQLSYTLPAFSLCLLFHP
expression_or_secretion [1]: no change
other: sperm-egg fusion, other: percent eggs fertilized [2]: no change, 94.7 vs 93.5
